Earlier results, collected in article PMC3245798.
pKd: −log10 of the molar value.

Target: SLAM (Homo sapiens) (UniProt Q13291)
Details: cited from earlier work

Sequence of UniProt Q13291 (Q13291 21-335): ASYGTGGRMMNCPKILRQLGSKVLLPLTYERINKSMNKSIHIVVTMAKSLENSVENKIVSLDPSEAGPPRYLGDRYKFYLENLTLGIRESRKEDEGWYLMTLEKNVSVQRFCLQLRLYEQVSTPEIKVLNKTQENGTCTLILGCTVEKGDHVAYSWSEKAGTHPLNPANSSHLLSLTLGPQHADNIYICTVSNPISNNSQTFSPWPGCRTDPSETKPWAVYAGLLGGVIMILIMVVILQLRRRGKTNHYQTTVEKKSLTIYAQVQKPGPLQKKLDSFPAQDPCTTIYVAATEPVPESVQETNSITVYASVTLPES

For “measles virus hemagglutinin (H) (from UniProt P08362)”, the pKd is given as 7.10.
